Test results from US20070031445A1 (BOARD OF REGENTS OF THE UNIVERSITY OF NEBRASKA, published 2007).
Where no end group is shown, it is not given here. [ ]: non-standard residue; d: D form.

T1: C5a receptor (C5aR) expressed on the surface of human PMNs (human, UniProt P21730 1-350)
T1 construct: whole, on cells; Endogenous receptor on intact human polymorphonuclear cells; also called C5aRs
T1 sequence (looked up): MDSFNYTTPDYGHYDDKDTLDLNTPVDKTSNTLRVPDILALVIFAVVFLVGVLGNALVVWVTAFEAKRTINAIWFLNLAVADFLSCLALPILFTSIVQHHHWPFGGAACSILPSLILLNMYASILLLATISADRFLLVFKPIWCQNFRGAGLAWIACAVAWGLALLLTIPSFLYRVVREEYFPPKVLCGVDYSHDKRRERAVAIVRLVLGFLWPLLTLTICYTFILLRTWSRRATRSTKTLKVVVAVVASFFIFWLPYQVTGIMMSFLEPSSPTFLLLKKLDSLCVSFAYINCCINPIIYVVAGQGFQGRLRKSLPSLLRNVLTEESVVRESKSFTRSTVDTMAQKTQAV


How the values were obtained:
[1] = target: T1, C5a receptor (C5aR) expressed on the …; assay: competition with 125I-C5a on intact human PMNs (column headed EC50; 50% inhibition of 125I-C5a binding)
[2] = target: T1, C5a receptor (C5aR) expressed on the …; assay: cell-based or functional assay
[3] = target: T1, C5a receptor (C5aR) expressed on the …; assay: competition with 125I-C5a on intact human PMNs
Description: Statistical analysis of the values obtained from pharmacologic assays was performed using one-way analysis of variance (ANOVA).

[4] = target: T1, C5a receptor (C5aR) expressed on the …; assay: cell-based or functional assay; remark: listed apart in the source

Row | Binder | IC50 [1] [µM] | EC50, smooth muscle contraction of human umbilical artery [2] [µM] | pD2, smooth muscle contraction of human umbilical artery [2] | pD2 (-log IC50 (M)) [3] | EC50, MPO release from human PMNs [4] [µM] | pD2, MPO release from human PMNs [4]
1 | IPQSLDSWWTSLRRYSFKPMPL[dA]R (Synthetic peptide; also called RR-containing construct) [IPQSLDSWWTSLRRYSFKPMPLaR (double-Arg-linked C5a-active construct)] | 0.416 | 0.161 | 6.79 -log EC50 (M) | 6.38 -log IC50 (M) | 0.54 | 6.27 -log EC50 (M)
2 | IPQSLDSWWTSLRRYSFKPMPL[dA]RG (Synthetic peptide) | 17 | 6.78 | 5.17 -log EC50 (M) | 4.77 -log IC50 (M) | 2.56 | 5.59 -log EC50 (M)
3 | YSFKPMPL[dA]RRRIPQSLDSWWTSL (Synthetic peptide) [YSFKPMPLa[…] (C5a-inactive construct, C-terminus of agonist blocked by the HBsAg CTL epitope)] | 465 | 39.4 | 4.41 -log EC50 (M) | 3.33 -log IC50 (M) | > 1000 | –
4 | IPQSLDSWWTSLYSFKPMPL[dA]R (Synthetic peptide; also called C5a-active construct without linker) [IPQSLDSWWTSLYSFKPMPLaR (HBsAg CTL epitope attached directly to N-terminus of the C5a agonist)] | 3.69 | 0.21 | 6.68 -log EC50 (M) | 5.43 -log IC50 (M) | 1.58 | 5.8 -log EC50 (M)
5 | natural C5a (ligand, UniProt P01031 678-751, looked up, 125I label on the tracer form used in the competition assay, C5a is only a fragment of it) TLQKKIEEIAAKYKHSVVKKCCYDGACVNNDETCEQRAARISLGPRCIKAFTECCVVASQLRANISHKDMQLGR | 0.0004 | 0.002 | – | 9.43 -log IC50 (M) | 0.003 | –
6 | IPQSLDSWWTSLRVRRYSFKPMPL[dA]R (Synthetic peptide; also called RVRR-containing construct) [IPQSLDSWWTSLRVRRYSFKPMPLaR (RVRR furin-sensitive-linked C5a-active construct)] | 0.529 | 0.18 | 6.67 -log EC50 (M) | 6.28 -log IC50 (M) | 2.15 | 5.61 -log EC50 (M)
7 | YSFKPMPL[dA]R (Synthetic peptide; also called C5a agonist; peptide (2)) [C5a C-terminal decapeptide agonist analog YSFKPMPLaR] | 2.34 | 0.01 | – | 5.63 -log IC50 (M) | – | –
